This note sets out measurements from US20210139548A1 (published 2021).

*1 amine or outer side, *2 acyl side, *3 side chain or, on linkers, in order; H or OH if unused. Side-chain parts run from the residue outwards. The star is where a group is joined. C18 diacid = O=C(O)CCCCCCCCCCCCCCCCC(=O)*; γGlu = O=C(O)[C@H](CCC(=O)[*:2])N[*:1]; Isovaleryl = CC(C)CC(=O)*; AEEA = NCCOCCOCC(=O)O

To fix the notation:
T1: human neuropeptide Y2 receptor (human, UniProt P49146 1-381)
T1 construct: whole, on cells; also called hNPY2 receptor; hNPY2-R
T1 sequence (looked up): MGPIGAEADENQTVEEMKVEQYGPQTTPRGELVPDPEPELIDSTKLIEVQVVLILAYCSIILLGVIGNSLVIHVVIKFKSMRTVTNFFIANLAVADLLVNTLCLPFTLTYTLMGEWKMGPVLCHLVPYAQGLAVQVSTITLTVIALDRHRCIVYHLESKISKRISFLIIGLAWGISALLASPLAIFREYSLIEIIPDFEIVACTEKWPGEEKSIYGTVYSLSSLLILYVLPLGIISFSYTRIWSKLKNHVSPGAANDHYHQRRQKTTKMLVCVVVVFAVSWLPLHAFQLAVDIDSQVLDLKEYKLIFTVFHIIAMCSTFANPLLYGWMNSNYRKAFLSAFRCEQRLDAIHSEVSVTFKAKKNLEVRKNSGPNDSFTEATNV

B1: Compound 92 (peptide)
peptide: Isovaleryl-APEK([AEEA-AEEA-γGlu-C18 diacid])PEEDTSPEELQRYYVSLRHYYNWLTRQRY-NH2
SMILES: CC(C)CC(=O)N[C@@H](C)C(=O)N1CCC[C@H]1C(=O)N[C@@H](CCC(=O)O)C(=O)N[C@@H](CCCCNC(=O)COCCOCCNC(=O)COCCOCCNC(=O)CC[C@H](NC(=O)CCCCCCCCCCCCCCCCC(=O)O)C(=O)O)C(=O)N1CCC[C@H]1C(=O)N[C@@H](CCC(=O)O)C(=O)N[C@@H](CCC(=O)O)C(=O)N[C@@H](CC(=O)O)C(=O)N[C@H](C(=O)N[C@@H](CO)C(=O)N1CCC[C@H]1C(=O)N[C@@H](CCC(=O)O)C(=O)N[C@@H](CCC(=O)O)C(=O)N[C@@H](CC(C)C)C(=O)N[C@@H](CCC(N)=O)C(=O)N[C@@H](CCCNC(=N)N)C(=O)N[C@@H](Cc1ccc(O)cc1)C(=O)N[C@@H](Cc1ccc(O)cc1)C(=O)N[C@H](C(=O)N[C@@H](CO)C(=O)N[C@@H](CC(C)C)C(=O)N[C@@H](CCCNC(=N)N)C(=O)N[C@@H](Cc1c[nH]cn1)C(=O)N[C@@H](Cc1ccc(O)cc1)C(=O)N[C@@H](Cc1ccc(O)cc1)C(=O)N[C@@H](CC(N)=O)C(=O)N[C@@H](Cc1c[nH]c2ccccc12)C(=O)N[C@@H](CC(C)C)C(=O)N[C@H](C(=O)N[C@@H](CCCNC(=N)N)C(=O)N[C@@H](CCC(N)=O)C(=O)N[C@@H](CCCNC(=N)N)C(=O)N[C@@H](Cc1ccc(O)cc1)C(N)=O)[C@@H](C)O)C(C)C)[C@@H](C)O
B2: Compound 102 (peptide)
peptide: Isovaleryl-APEK([AEEA-AEEA-γGlu-C18 diacid])PEEDASPEELQRYYVTLRHYYNWLTRQRY-NH2
SMILES: CC(C)CC(=O)N[C@@H](C)C(=O)N1CCC[C@H]1C(=O)N[C@@H](CCC(=O)O)C(=O)N[C@@H](CCCCNC(=O)COCCOCCNC(=O)COCCOCCNC(=O)CC[C@H](NC(=O)CCCCCCCCCCCCCCCCC(=O)O)C(=O)O)C(=O)N1CCC[C@H]1C(=O)N[C@@H](CCC(=O)O)C(=O)N[C@@H](CCC(=O)O)C(=O)N[C@@H](CC(=O)O)C(=O)N[C@@H](C)C(=O)N[C@@H](CO)C(=O)N1CCC[C@H]1C(=O)N[C@@H](CCC(=O)O)C(=O)N[C@@H](CCC(=O)O)C(=O)N[C@@H](CC(C)C)C(=O)N[C@@H](CCC(N)=O)C(=O)N[C@@H](CCCNC(=N)N)C(=O)N[C@@H](Cc1ccc(O)cc1)C(=O)N[C@@H](Cc1ccc(O)cc1)C(=O)N[C@H](C(=O)N[C@H](C(=O)N[C@@H](CC(C)C)C(=O)N[C@@H](CCCNC(=N)N)C(=O)N[C@@H](Cc1c[nH]cn1)C(=O)N[C@@H](Cc1ccc(O)cc1)C(=O)N[C@@H](Cc1ccc(O)cc1)C(=O)N[C@@H](CC(N)=O)C(=O)N[C@@H](Cc1c[nH]c2ccccc12)C(=O)N[C@@H](CC(C)C)C(=O)N[C@H](C(=O)N[C@@H](CCCNC(=N)N)C(=O)N[C@@H](CCC(N)=O)C(=O)N[C@@H](CCCNC(=N)N)C(=O)N[C@@H](Cc1ccc(O)cc1)C(N)=O)[C@@H](C)O)[C@@H](C)O)C(C)C
B3: Compound 100 (peptide)
peptide: Isovaleryl-APAK([AEEA-AEEA-γGlu-C18 diacid])PPEDASPEELQRYYVSLRHYYNWLTRQRY-NH2
SMILES: CC(C)CC(=O)N[C@@H](C)C(=O)N1CCC[C@H]1C(=O)N[C@@H](C)C(=O)N[C@@H](CCCCNC(=O)COCCOCCNC(=O)COCCOCCNC(=O)CC[C@H](NC(=O)CCCCCCCCCCCCCCCCC(=O)O)C(=O)O)C(=O)N1CCC[C@H]1C(=O)N1CCC[C@H]1C(=O)N[C@@H](CCC(=O)O)C(=O)N[C@@H](CC(=O)O)C(=O)N[C@@H](C)C(=O)N[C@@H](CO)C(=O)N1CCC[C@H]1C(=O)N[C@@H](CCC(=O)O)C(=O)N[C@@H](CCC(=O)O)C(=O)N[C@@H](CC(C)C)C(=O)N[C@@H](CCC(N)=O)C(=O)N[C@@H](CCCNC(=N)N)C(=O)N[C@@H](Cc1ccc(O)cc1)C(=O)N[C@@H](Cc1ccc(O)cc1)C(=O)N[C@H](C(=O)N[C@@H](CO)C(=O)N[C@@H](CC(C)C)C(=O)N[C@@H](CCCNC(=N)N)C(=O)N[C@@H](Cc1c[nH]cn1)C(=O)N[C@@H](Cc1ccc(O)cc1)C(=O)N[C@@H](Cc1ccc(O)cc1)C(=O)N[C@@H](CC(N)=O)C(=O)N[C@@H](Cc1c[nH]c2ccccc12)C(=O)N[C@@H](CC(C)C)C(=O)N[C@H](C(=O)N[C@@H](CCCNC(=N)N)C(=O)N[C@@H](CCC(N)=O)C(=O)N[C@@H](CCCNC(=N)N)C(=O)N[C@@H](Cc1ccc(O)cc1)C(N)=O)[C@@H](C)O)C(C)C
B4: Compound 101 (peptide)
peptide: Isovaleryl-APEK([AEEA-AEEA-γGlu-C18 diacid])PEEDATPEELQRYYVELRHYYNWLTRQRY-NH2
SMILES: CC(C)CC(=O)N[C@@H](C)C(=O)N1CCC[C@H]1C(=O)N[C@@H](CCC(=O)O)C(=O)N[C@@H](CCCCNC(=O)COCCOCCNC(=O)COCCOCCNC(=O)CC[C@H](NC(=O)CCCCCCCCCCCCCCCCC(=O)O)C(=O)O)C(=O)N1CCC[C@H]1C(=O)N[C@@H](CCC(=O)O)C(=O)N[C@@H](CCC(=O)O)C(=O)N[C@@H](CC(=O)O)C(=O)N[C@@H](C)C(=O)N[C@H](C(=O)N1CCC[C@H]1C(=O)N[C@@H](CCC(=O)O)C(=O)N[C@@H](CCC(=O)O)C(=O)N[C@@H](CC(C)C)C(=O)N[C@@H](CCC(N)=O)C(=O)N[C@@H](CCCNC(=N)N)C(=O)N[C@@H](Cc1ccc(O)cc1)C(=O)N[C@@H](Cc1ccc(O)cc1)C(=O)N[C@H](C(=O)N[C@@H](CCC(=O)O)C(=O)N[C@@H](CC(C)C)C(=O)N[C@@H](CCCNC(=N)N)C(=O)N[C@@H](Cc1c[nH]cn1)C(=O)N[C@@H](Cc1ccc(O)cc1)C(=O)N[C@@H](Cc1ccc(O)cc1)C(=O)N[C@@H](CC(N)=O)C(=O)N[C@@H](Cc1c[nH]c2ccccc12)C(=O)N[C@@H](CC(C)C)C(=O)N[C@H](C(=O)N[C@@H](CCCNC(=N)N)C(=O)N[C@@H](CCC(N)=O)C(=O)N[C@@H](CCCNC(=N)N)C(=O)N[C@@H](Cc1ccc(O)cc1)C(N)=O)[C@@H](C)O)C(C)C)[C@@H](C)O
B5: Compound 94 (peptide)
peptide: Isovaleryl-APEK([AEEA-AEEA-γGlu-C18 diacid])PEEDASPEETQRYYVELRHYYNWLTRQRY-NH2
SMILES: CC(C)CC(=O)N[C@@H](C)C(=O)N1CCC[C@H]1C(=O)N[C@@H](CCC(=O)O)C(=O)N[C@@H](CCCCNC(=O)COCCOCCNC(=O)COCCOCCNC(=O)CC[C@H](NC(=O)CCCCCCCCCCCCCCCCC(=O)O)C(=O)O)C(=O)N1CCC[C@H]1C(=O)N[C@@H](CCC(=O)O)C(=O)N[C@@H](CCC(=O)O)C(=O)N[C@@H](CC(=O)O)C(=O)N[C@@H](C)C(=O)N[C@@H](CO)C(=O)N1CCC[C@H]1C(=O)N[C@@H](CCC(=O)O)C(=O)N[C@@H](CCC(=O)O)C(=O)N[C@H](C(=O)N[C@@H](CCC(N)=O)C(=O)N[C@@H](CCCNC(=N)N)C(=O)N[C@@H](Cc1ccc(O)cc1)C(=O)N[C@@H](Cc1ccc(O)cc1)C(=O)N[C@H](C(=O)N[C@@H](CCC(=O)O)C(=O)N[C@@H](CC(C)C)C(=O)N[C@@H](CCCNC(=N)N)C(=O)N[C@@H](Cc1c[nH]cn1)C(=O)N[C@@H](Cc1ccc(O)cc1)C(=O)N[C@@H](Cc1ccc(O)cc1)C(=O)N[C@@H](CC(N)=O)C(=O)N[C@@H](Cc1c[nH]c2ccccc12)C(=O)N[C@@H](CC(C)C)C(=O)N[C@H](C(=O)N[C@@H](CCCNC(=N)N)C(=O)N[C@@H](CCC(N)=O)C(=O)N[C@@H](CCCNC(=N)N)C(=O)N[C@@H](Cc1ccc(O)cc1)C(N)=O)[C@@H](C)O)C(C)C)[C@@H](C)O
B6: Compound 95 (peptide)
peptide: Isovaleryl-APEK([AEEA-AEEA-γGlu-C18 diacid])PEEDASPAEIQRYYVSLRHYYNWLTRQRY-NH2
SMILES: CC[C@H](C)[C@H](NC(=O)[C@H](CCC(=O)O)NC(=O)[C@H](C)NC(=O)[C@@H]1CCCN1C(=O)[C@H](CO)NC(=O)[C@H](C)NC(=O)[C@H](CC(=O)O)NC(=O)[C@H](CCC(=O)O)NC(=O)[C@H](CCC(=O)O)NC(=O)[C@@H]1CCCN1C(=O)[C@H](CCCCNC(=O)COCCOCCNC(=O)COCCOCCNC(=O)CC[C@H](NC(=O)CCCCCCCCCCCCCCCCC(=O)O)C(=O)O)NC(=O)[C@H](CCC(=O)O)NC(=O)[C@@H]1CCCN1C(=O)[C@H](C)NC(=O)CC(C)C)C(=O)N[C@@H](CCC(N)=O)C(=O)N[C@@H](CCCNC(=N)N)C(=O)N[C@@H](Cc1ccc(O)cc1)C(=O)N[C@@H](Cc1ccc(O)cc1)C(=O)N[C@H](C(=O)N[C@@H](CO)C(=O)N[C@@H](CC(C)C)C(=O)N[C@@H](CCCNC(=N)N)C(=O)N[C@@H](Cc1c[nH]cn1)C(=O)N[C@@H](Cc1ccc(O)cc1)C(=O)N[C@@H](Cc1ccc(O)cc1)C(=O)N[C@@H](CC(N)=O)C(=O)N[C@@H](Cc1c[nH]c2ccccc12)C(=O)N[C@@H](CC(C)C)C(=O)N[C@H](C(=O)N[C@@H](CCCNC(=N)N)C(=O)N[C@@H](CCC(N)=O)C(=O)N[C@@H](CCCNC(=N)N)C(=O)N[C@@H](Cc1ccc(O)cc1)C(N)=O)[C@@H](C)O)C(C)C

In the assay the target is T1, human neuropeptide Y2 receptor. Description: radioligand competition (125I-PYY(1-36)), hNPY2R membranes. In a few lines:
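Commercial human Y2 receptor membranes (0.5 μg protein/well) were incubated with peptide for 2 h at room temperature in 50 mM HEPES, 5 mM MgCl₂, 1 mM CaCl₂, pH 7.4, with 0.2% ovalbumin. Bound radioligand was separated on PEI-soaked GF/C filters and counted by scintillation, and IC₅₀ came from nonlinear sigmoidal regression.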
For orientation: Displacement assays read how much labelled ligand stays bound in the presence of the test substance.
In general, Ki refers to the equilibrium dissociation constant of an inhibitor or competing ligand from its target. Read a low Ki as tighter binding. Molecule B1 displayed a Ki of 1.57 nM.

The molecule B2 yielded a Ki of 0.87 nM.

Regarding B3, the affinity, expressed as Ki, was 0.44 nM.

With B4, the Ki worked out at 3.29 nM.

B5 showed a Ki of 2.07 nM.

B6 had a Ki of 0.66 nM.
